Source: PMC9147068, “The Response Regulator RegA Is a Copper Binding Protein That Covalently Dimerizes When Exposed to Oxygen” (Microorganisms, 2022)

B1: RegA (response regulator RegA of Rhodobacter capsulatus), wild type, tagless (natural protein, UniProt P42508 1-184, looked up)
chain: MAEEEFAELGSDRSLLLVDDDNAFLTRLARAMEKRGFQTEIAETVSAGKAIVQNRAPAYAVIDLRLEDGNGLEVVEALRERRPEARIVVLTGYGAIATAVAAVKMGATDYLSKPADANDITNALLAKGEALPPPPENPMSADRVRWEHIQRVYELCDRNVSETARRLNMHRRTLQRILAKRSPR
notes: RegA, response regulator of the RegB/RegA two-component system, Rhodobacter capsulatus; wild-type codon at residue 95 (made from the RegA* overexpression vector of Du et al. 1998); a single cysteine, Cys156, in the tryptic peptide VYELCDR; The dimer formed with Cu2+ and O2 is joined by an intermolecular disulfide bond between Cys156 of two chains; also called apo-RegA; RegA monomer

Experiments:
[1] = test system: RegA, Cu2+-stimulated disulfide-linked dimer (unphosphorylated) (Rhodobacter capsulatus); assay: DNase I footprinting; conditions: 20 mM Tris-HCl pH 8.0, 2 mM MgCl2, 0.5 mM CaCl2, 0.1 mg/mL BSA, 50 nM DNA probe, 20 uL, 15 min at room temperature
[2] = target: the molecule itself; assay: non-reducing SDS-PAGE; monomeric RegA loaded with Cu2+ by buffer exchange aerobically (20 mM Tris-HCl pH 8.0, 250 mM NaCl), run at once on a non-reducing gel without DTT; time course in air from one minute

Molecule	Kd [1] [nM]	stoichiometry N [2]
ccoN promoter fragment (299 bp)	1000	–
B1	–	2
